Experimental data as given in US20250277031A1.
Where two headings read alike, the source gives them in different places.

How the values were obtained:
[1] = biological target: recombinant human CD47 (human) (UniProt Q08722); assay: ELISA, plate coated with recombinant human CD47, OD450
[2] = biological target: recombinant human CD47 (human) (UniProt Q08722); assay: SPR, Biacore X100, antibody captured on Protein A chip, CD47 as analyte
[3] = biological target: recombinant human CD47-Fc protein (ACROBiosystems, catalog number CD7-H52A5) (human) (UniProt Q08722); assay: blocking ELISA: plate coated with human CD47-Fc, biotin-labelled SIRPα as the blocked ligand, falling OD450 curve; the sheet labels the half-maximal value EC50
recombinant human CD47-Fc protein (ACROBiosystems, catalog number CD7-H52A5) (human), sequence (Q08722 19-139 limits assumed): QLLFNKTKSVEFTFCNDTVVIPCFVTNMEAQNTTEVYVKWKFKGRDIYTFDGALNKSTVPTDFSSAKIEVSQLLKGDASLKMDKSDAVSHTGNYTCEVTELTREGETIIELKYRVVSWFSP

[4] = biological target: recombinant human CD47 (human) (UniProt Q08722); assay: SPR, Biacore X100, antibody captured on Protein A chip, CD47 as analyte; remark: listed apart in the source
[5] = biological target: recombinant human CD47 (human) (UniProt Q08722); assay: ELISA, plate coated with 1 µg/mL recombinant human CD47, OD450
[6] = biological target: recombinant human CD47-Fc protein (ACROBiosystems, catalog number CD7-H52A5) (human) (UniProt Q08722); assay: blocking ELISA: plate coated with human CD47-Fc, 2 nM biotin-labelled SIRPα as the blocked ligand, falling OD450 curve; the sheet labels the half-maximal value EC50

recombinant human CD47 (human), sequence (Q08722 19-139 limits assumed): as above

EC50 [1]: 0.033 nM | Kd [2]: 0.857 nM | koff [2]: 0.00135 s⁻¹ | kon [2]: 1.57e+06 M⁻¹ s⁻¹ | IC50 [3]: 0.774 nM | Kd [4]: 1.16 nM | koff [4]: 0.00176 s⁻¹ | kon [4]: 1.52e+06 M⁻¹ s⁻¹ | EC50 [5]: 0.058 nM | IC50 [6]: 1.43 nM
B1: control CC-90002 (a patent sequence from WO2016109415) (antibody, from another filing, V domains shown)
VH: QMQLVQSGAEVKKTGSSVKVSCKASGFNIKDYYLHWVRQAPGQALEWMGWIDPDQGDTEYAQKFQDRVTITRDRSMSTAYMELSSLRSEDTAMYYCNAAYGSSSYPMDYWGQGTTVTV
VL: NIQMTQSPSAMSASVGDRVTITCKASQDIHRYLSWFQQKPGKVPKHLIYRANRLVSGVPSRFSGSGSGTEFTLTISSLQPEDFATYYCLQYDEFPYTFGGGTKVEIK
